Assay results from the DeepSol protein solubility set.

Experiment: soluble on expression in E. coli; label from the status in PepcDB or PDB records

Soluble on expression in E. coli, not soluble:
RIKEKTISHWVAMQGIAMIQLNLLRTSQSQESTQATTMLGQKWYWRAKISPTPIKRMQQITISVSSKQAGPFREELIAFRYLP
GPGSMELTEEERGLLILRLHQVLRPFLLRRTKADVDSTLRMTFHHMWCPLSAMQQRLLCMLREQRRIPTVLGMAGGYSGKSSSSSEADNEEEEEAAGAADAAAHTSTFPAAEIGADESTGCTPYIAVAALAADALHGKASPDLDPLQARNETAMPRDRLAELVWRHLPALASTESSDILRCAVQQDRALGLTSAGVSESSARLVCNHAFLLPFFSQVLHRHGLDEVTQEGCNDADAAAVATSESSVVGAEAAERCGAAGLTLACSGKFLVLHLLLSRLYVAQRKVVLFTHWLNCVDLLVDYLYSRGWADHAEVLTGGSSEAERLTSVRRFREDPGCLFFLLSIKAGGCGINLQAAHMVVLVDRDYTVTNEDQALARVYRIGQRYTVRAVYLATTDSSEQHVAQRATAKNKPRQAIINDGVYQVTTASEGERVGETGEAVTAAKFADPPSHAYNELDTSELWRSISGATTPPSPTTAMQEARRPECDGTASGAARPAPFSLPPPEAFWVALSCLVESMDELVLTEEDRAAATVRSAEEERRSMGCTPANSAAARLLATRPPRSTAELHLRLQGGRDEMFSGPQRERGVAPSLSGTAASDAYLGVWKQSAEAPTTGDRTRSHTPSEPQAAALAAAPQPTPRSAPVTDPLQNSALFWLEYSHLLRIAGRGPYLLSDSLRVAVTNDTRKNDPEERVRRRQRRDRRVAKRLRLASVDVPDDFREACWAKEGIDDDAEVAERYLRFLDANAGKRRQRRRKDAG
MQNRKFLTHHEINLLLQSVKQKSCSSRDVCMILLAYFHGLRVSELLSLQLSDLELTTEKIYIQRIKNGFSTVHPLQKEEVIAITNWLNERNSLNVKHFNDNPWLFVSRTGKPLSRQRFYNI
MGSDKIHHHHHHMSDADPKVPHRGHELLDVLARLGGSARNAQIAQVMDVSEETVRRLVKTLAKQGKVERVHGGTYLRGSQDAPMYSGALEQQPKEKTRIAKGVLELIRDGMTLFINVGSTTTYVAEQLRERRDLTIVTNSISTVASLADHNGSRVFLAGGEVSRSERGCFGRATEDFARRFAYDVLVIGADAMSPELGVLAANPREAELTRALLGNATRVIVAADYRKFSAIAPCIAAPLEAITDLVTDAAPPDALQDALDRCGVATHLAAKSGRITTRTPPPQDVGHSNTNRKTLSFPTEVS
MGSDKIHHHHHHVSPHSPVQLSLPVYLPDDETFNSYYPAAGNDELILSLQASAEGRANKAVYLWGPVKAGRTHLMHATCARANELNRSSFYLPLGIHASISTELLEGLEQLDLVCIDDVDAIAGHPLWEEALFDLYNRVAEHKRCALVVSASATASDAGFALPDLVSRMQWGLTYQLQPMADEEKLAALQRRAAMRGLQLPEDVGRFLLNRLARDLRTLFDVLDRLDKASLVHQRKLTIPFVKEMLRL
MAKKMKLSDITNMFAGMDVEALEGVTIEGDIEIDLGGLGGGFDPMLAAALGQESAVLAQHFARIAGMFGYPVGIGAPAAPAISPALAAPKLKDLIPAKFDVANIAEWATQIQEVPIGNTSADGGSRGKRVLVGGEKALPFFPDAPMPNRNQVTIDVFDMRIGLAKAVKENYDEVMDSPGEWAKKNVEKFNADMITIHLISTDPLVKDTPPKEAAKTVEEVLQAVDVPIAIGGSGNPQKDPEVLARAAEVAEGERCLLASASLNLDYAAIAEAALKYDHDVLSWTQLDMNAQKELNRKLMKQCNVPRDRIIMDPTTAALGYGLDYAYTNMERIRLAALMGDDELTFPMSSGTTNAWGARESWMVGSPLKEDSDWGPREYRGPIWEIVTGLSLAIAGNDLFMMMHPTSVAVLKQITQTLFGTIDTEQVDIANWIGAEV
MYSTLEQLTKHPVFYHFAEISKIPRGSGNEKEISDYLVGFAKERNLEVIQDEALNVIIKKEATTGYENVPAIIIQGHMDMVCEKNQATVHDFEKDPIELRIIGDMLYANQTTLGADNGIAVAYALALLDSKEIPHPALEVVITTEEETTMGGAFAIDPNHFEGKIFINIDSEEDHKLLVSSAGGAKAVETIPVIWDETPANMDAYRLYVGGLKGGHSGMEIDKQRGNANKVLGRVLRDLSAHTEFNISEVHGGLKTNAIPRESVATLLIRTEDVGQVEEKLESWTRVLQEEMRAVDPDVHVTLTKLDETVEKVFAQETQKQLISSLFLIPNGIQSMSMDIKGLVESSTNLGVIETLQDEIKLRNEVRSSVSSLKQHVAEEIKYIAELVGATFEIESEYPEWPYNPNSQIRNLFEKVHQEKYNKEIEIFAVHAGIECSAFVQKMPELDAISFGPDIFNVHTPDEHISISSVVNNWGFFIDVMKGTKELAK
MGSDKIHHHHHHMVLLETNRLRLQTIDIPLLDAASKQDHQAIKELGYETNGEWPNSDFFEAIPYFREILVKNNGTKGFDSWIIVKKDNYEIVGGTGFLGDPDENGMIEIGFATNKSHRRKGYCVEAAQKLINWALSRETVSRITARCEHDNLGSQKTLEKLGFILNHKSAEYKHWIYVTK
MGSDKIHHHHHHMDEQTHTHLSRRRTLTASAGVLSAGLAGCITSGDTDGDPESGPTVAVASFFSFYDFARKIVADTPITVRNLIPTGLHGHGWEPNASITKEILDADALIHVGPDFQPWVDRAIESLDDDDADTRRINVRDGVELVDLAASLDRDEEGIGQNRGKDPHFWLDPNRAKQSIDNLTEGFVQLAPSHENTLRTNAAAYKSGVLDELDDAYAAIFDRADRDVVQLAAHNAFQYLGTAYDIEMRPLVVNLAASGTVKASDIMDAKQTIDDNDITYIGAAVFETRRPAEQLLSETDVEAYYPVTPYAGVREDWVQQGWGYEEIARNINMPTFKLLLGNAAPDDVGGAEWNATWRNFE
MGRIIILDENTANQIAAGEVVERPASVVKELVENSIDAGSTNISVEINNGGISFIKVVDNGSGIEEDDIEIAFERHATSKIRRASDLEAITSLGFRGEALASIASVSTVEVTSRPAHREYGRYVKIQGGTVLESGQVGCPAGTTFIVRDLFYNTPARFKFLKKDSTEAGYVSDIVSRIALGNPDISFRLINNKNTVIHTPGNNDLLSTIYSLYGKETAKECMEISYEDETVKITGYAGSPEIARANRNYQSIYLNKRYIKNKVISSAIDEAYKTYLMKNKFAFIVLYIELNPLLVDVNVHPTKMEVRFSREQEIFRAVYHAVNNALLSKTHIRNVSLKDSPKNYFKFEQSSKKEADYVQQRLDTDRKFSGYNYDEDFKTEKTNTSKSTWENLIVKESANINKRKDETIDEVINKNEVGDKNKVISEDEVINKDEVINKDKVINKDKVINKGEVVNKVNVNEVENESVDNLINGQISGLVNWAINEPINKTNDKLIEKSDGTALKGTGEECYNFDKSGYDNILKDVSDKPKDNRNDVDNNADTNFEKIRDGKDTRPQQDIERNVFLDARIIGQVFSTYILLQNEDDLIIIDQHAAHERIRFEELKEKYARNESLAQYLLTPVVIELTNQEIVFLEEEKELFNKLGFIFESFGNNSIILRSVPIPDEGVGVKEAFLEVVDFLMSKGRKYDKIIEEDALYQIACKSAVKANKKLDEIEIKAILDKLNMLQNPYTCPHGRPTVVKITKYEFEKMFKRIV
MSNDKSAEVVVLPRENDEESKEPVLKNQFDLSTFDIDSPEIDLTHTRADHIPDLTGFPKIEELRMRNNLLVSISPTISSLVTLTSLDLYENQLTEISHLESLVNLVSLDLSYNRIRQINGLDKLTKLETLYLVSNKIEKIENLEALTQLKLLELGDNRIKKIENIGHLVNLDELFIGKNKIRQLEGVETLQKLSVLSLPGNRIVKIENVEQLNNLKELYLSDQGLQDIHGVEPLTNLLLLDVANNEIKTFSGVERLESLNDFWANDNKVESFSEIEQLSKLKGLQTVYLERNPFYFNDTNQYRRKVMMTLTQVTQIDATTCRKPIE
MGSDKIHHHHHHMVTGASGFVGSALCCELARTGYAVIAVVRRVVERIPSVTYIEADLTDPATFAGEFPTVDCIIHLAGRAHILTDKVADPLAAFREVNRDATVRLATRALEAGVKRFVFVSSIGVNGNSTRQQAFNEDSPAGPHAPYAISKYEAEQELGTLLRGKGMELVVVRPPLIYANDAPGNFGRLLKLVASGLPLPLDGVRNARSLVSRRNIVGFLSLCAEHPDAAGELFLVADGEDVSIAQMIEALSRGMGRRPALFTFPAVLLKLVMCLLGKASMHEQLCGSLQVDASKARRLLGWVPVETIGAGLQAAGREYILRQRERRK
MKRVVLYIKDKCPHCKDAQRYLDSKGIKYRLCNAKMERGRKELDALGARSVPVLKIGDRLMIGWNHTNFERIYSSKD

Soluble on expression in E. coli, soluble:
MKVASGSTATAAAGPSCALKAGKTASGAGEVVRCLSEQSVAISRCAGGAGARLPALLDEQQVNVLLYDMNGCYSRLKELVPTLPQNRKVSKVEILQHVIDYIRDLQLELNSESEVGTPGGRGLPVRAPLSTLNGEISALTAEAACVPADDRILCRLEHHHHHH
GLEAVRKRPGMYIGSTSERGLHHLVWEIVDNSIDEALAGYANQIEVVIEKDNWIKVTDNGRGIPVDIQEKMGRPAVEVILTSSVVNALSQDLEVYVHRNETIYHQAYKKGVPQFDLKEVGTTDKTGTVIRFKADGEIFTETTVYNYETLQQRIRELAFLNKGIQITLRDERDEENVREDSYHYE
MSLELFKSVKLDKNSGTPLYMQLSDKIAEMIENGILPADLKLPSIRQMSALLNVNSVTIVSCYKHLETKGYVYSRPGSGTYVAVVLPKQSENYSDRNIILDELYQSDDLNLINNGHIKINENTINFASATPKSSLFPVENFKLVLNEVLDRDRGNAFDYQDSQGYYPLRSSVRILLEKRKIACHEENIQIISGAQQGIDIIAKALLRQGDYVITESPTYTGAIAVFKSRGAEIADVPLSCDGPNLNILEYNLKKYKPKLIYTIPSFQNPTGISYSNEKRKEILALAERYDAYIIEDDYVSGLDFENMGFATVKSMDKSDRVIFLKSFSKIFMPGLRLGFMVVPSSLKSYIIEAKHATDISTSGLIQRAFDLYIRKGMWDGHFKLMFNIYKERYYKTIEALERHLPQNVQFHKPGGGLNIWLELPANCFTGSLLKAASAENIVFAPGRIFYSSTPTNLNNIRLSFAAVDADEIERGIEKLSELILRFDRNKSEGHHHHHH
MASVPVYCLCRLPYDVTRFMIECDMCQDWFHGSCVGVEEEKAADIDLYHCPNCEVLHGPSIMKKRRGSSKGHDTHKGKPVKTGSPTFVRELRSRTFDSSDEVILKPTGNQLTVEFLEENSFSVPILVLKKDGLGMTLPSPSFTVRDVEHYVGSDKEIDVIDVTRQADCKMKLGDFVKYYYSGKREKVLNVISLEFSDTRLSNLVETPKIVRKLSWVENLWPEECVFERPNVQKYCLMSVRDSYTDFHIDFGGTSVWYHVLKGEKIFYLIRPTNANLTLFECWSSSSNQNEMFFGDQVDKCYKCSVKQGQTLFIPTGWIHAVLTPVDCLAFGGNFLHSLNIEMQLKAYEIEKRLSTADLFRFPNFETICWYVGKHILDIFRGLRENRRHPASYLVHGGKALNLAFRAWTRKEALPDHEDEIPETVRTVQLIKDLAREIRLVEDIFQQN
MVKVVVDASNVAYSTKNENSQPQMSNILAAVKSLEESGDEFVIIADASLRHDIDDKEKFEKLLESENVEEVPAGNDADHFILNIAHNEKAKILSNDKFRDYAAEFKNINSMRIPFVIENGRVTFGKPKSPKKDKNILQHISDEIIKELNFKRWEVYTGKEGLEISPLNIAKQAIIRIDNDNDTSSKLEKVFSKIPMFNKIVDMVDDVEVAAPYVIFVLVHPKDYKLAVKNAGNISVTVADRLRLEKKPLIAVRNDLFTRPGTFELNIMLADEVTEHAPYNVLVRVSTHDEVFIKKNSRNIASTIAGRLGSWKFPFVSVKPDMLLEKPGDFEIELEKGGSLDGLEHHHHHH
